The source of these data is patent KR20140148294A (dated 2014).

The target of the experiment is IGF-1R 단백질 (Sino biological Inc. 10164H08H) (UniProt P08069 31-932). Description: ELISA, coated IGF-1R (50 ng/well), anti-human Fc-HRP. In general terms: ELISA stands for enzyme-linked immunosorbent assay.
Chain of IGF-1R 단백질 (Sino biological Inc. 10164H08H) (P08069 31-932 limits assumed): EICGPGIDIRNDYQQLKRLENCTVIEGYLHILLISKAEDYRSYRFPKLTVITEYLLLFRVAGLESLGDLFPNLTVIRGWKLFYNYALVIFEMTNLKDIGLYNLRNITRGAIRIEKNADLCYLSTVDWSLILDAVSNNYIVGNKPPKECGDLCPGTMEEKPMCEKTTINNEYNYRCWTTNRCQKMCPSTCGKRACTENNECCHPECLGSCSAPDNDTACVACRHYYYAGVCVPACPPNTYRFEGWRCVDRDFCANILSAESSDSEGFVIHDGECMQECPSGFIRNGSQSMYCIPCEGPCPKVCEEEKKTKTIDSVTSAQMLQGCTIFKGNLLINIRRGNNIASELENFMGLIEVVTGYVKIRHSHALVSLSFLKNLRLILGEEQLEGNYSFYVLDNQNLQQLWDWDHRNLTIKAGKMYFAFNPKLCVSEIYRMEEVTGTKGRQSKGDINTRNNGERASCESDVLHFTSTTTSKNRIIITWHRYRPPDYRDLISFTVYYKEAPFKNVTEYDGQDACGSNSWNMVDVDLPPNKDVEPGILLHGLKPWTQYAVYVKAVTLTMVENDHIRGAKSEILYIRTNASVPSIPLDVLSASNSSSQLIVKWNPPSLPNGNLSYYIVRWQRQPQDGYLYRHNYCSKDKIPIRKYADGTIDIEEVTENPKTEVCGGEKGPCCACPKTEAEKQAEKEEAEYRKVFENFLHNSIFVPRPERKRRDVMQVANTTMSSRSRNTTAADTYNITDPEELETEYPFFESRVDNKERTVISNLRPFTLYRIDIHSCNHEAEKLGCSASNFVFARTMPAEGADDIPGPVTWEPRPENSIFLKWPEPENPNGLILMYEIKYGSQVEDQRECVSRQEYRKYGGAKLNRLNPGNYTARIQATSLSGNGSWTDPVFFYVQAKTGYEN

B1: MKJP2 인간 단일클론항체 (antibody, human IgG1, lambda, V domains shown)
VH: EVQLLESGGGLAQPGGSLRLSCAASGFTFSGYAMSWVRQAPGKGLEWVSAISSDGGSTYYADSVKGRFTISRDNSKNTLYLQMNSLRAEDTAVYYCARDPWFSRWTAFDYWGQGTLVTVSS
VL: QSVLTQPPSASGTPGQRVTISCSGSSSNIGNNAVNWYQQLPGTAPKLLIYSNSKRPSGVPDRFSGSKSGTSASLAISGLRSEDEADYYCGTWDYSLSGYVFGGGTKLTVLG
notes: Human anti-IGF-1R antibody without IL2, used as the control in the ELISA; also called 1229 클론
In turn, B1 displayed an EC50 of 0.148 nM.

For orientation: EC50 means the concentration that produces a half-maximal response. Lower therefore signals higher potency in that assay.
